Measurements from patent publication US20220227850A1 (CRESCENDO BIOLOGICS, published 2022).
Blank lines part the entries; values can stand above or below the binder they belong to.

Legend:
mouse serum albumin = target: T1, mouse serum albumin (mouse, UniProt P07724 25-608); assay: SPR, Biacore T200, single cycle kinetics, MSA amine coupled to CM5 chip, pH 7.4
T1 construct: also called MSA
Experimental: (§1) Binding studies with human, cyno and mouse serum albumin in pH 7.4 and pH 6.0 were carried out using single cycle kinetics on a Biacore T200. Serum albumin (HSA, CSA, MSA) were coupled to CM5 chip by amine coupling using the amine reagent coupling kit GE Healthcare BR-1000-50. The surface of the chip was activated according to manufacturer's instructions. Serum albumin (HSA, CSA, MSA) were captured and cross-linked to the sensor chip surface by injecting of serum albumin (HSA, CSA, MSA) in 10 mM sodium acetate, pH 5.0. Following with the injection of 1M Ethanolamine to stabilise the serum albumin on the surface. With this procedure around 300 RU were immobilized.
(§2) For kinetics measurement four-fold serial dilution of the VH single domain antibodies (194D04-2 or 191 E02-2) in either PBST pH 7.4 or PBST pH 6.0 were injected with 120s association and 300s dissociation at the flow rate of 45 μl/min at 25° C. Binding response was corrected by subtracting both the blank flow cell and from buffer run on the same flow cell. The traces were fitted using 1:1 model.

Human Serum Albumin [1] = target: T2, Human Serum Albumin (human, UniProt P02768 25-609); assay: SPR, Biacore T200, single cycle kinetics, albumin amine coupled to CM5 chip, 25 C, pH 7.4
T2 construct: also called HSA
Experimental: as §1, §2

Cyno Serum Albumin [2] = target: T3, Cyno Serum Albumin (cyno, UniProt A2V9Z4 25-608); assay: as above
T3 construct: Serum purified CSA (Abcam ab184894) is named for immunisation; also called CSA; cynomolgus serum albumin
Experimental: as §1, §2

Human Serum Albumin [3] = target: T2, Human Serum Albumin; assay: SPR, Biacore T200, single cycle kinetics, albumin amine coupled to CM5 chip, 25 C, pH 6.0
Experimental: as §1, §2

Cyno Serum Albumin [4] = target: T3, Cyno Serum Albumin; assay: as above
Experimental: as §1, §2

- binding result (mouse serum albumin): no binding
- Kd (Human Serum Albumin [1]): 590 nM
- koff (Human Serum Albumin [1]): 0.19 s⁻¹
- kon (Human Serum Albumin [1]): 330000 M⁻¹ s⁻¹
- Kd (Cyno Serum Albumin [2]): 100 nM
- koff (Cyno Serum Albumin [2]): 0.041 s⁻¹
- kon (Cyno Serum Albumin [2]): 290000 M⁻¹ s⁻¹
- Kd (Human Serum Albumin [3]): 600 nM
- koff (Human Serum Albumin [3]): 0.32 s⁻¹
- kon (Human Serum Albumin [3]): 530000 M⁻¹ s⁻¹
- Kd (Cyno Serum Albumin [4]): 99 nM
- koff (Cyno Serum Albumin [4]): 0.0644 s⁻¹
- kon (Cyno Serum Albumin [4]): 640000 M⁻¹ s⁻¹
B1: SEQ ID NO. 30 (VH single domain antibody binding HSA, variant of SEQ ID NO. 1) (VHH)
VHH: EVQLVESGGGLVKPGGSLRLSCAASGFTFSNYNMNWVRQAPGKGLEWVSSISSAGTHIYYADSVKGRFTISRDNAKNSLYLQMNSLRAEDTAVYYCARDPHSTGWYKDFDYWGQGTLVTVSS
notes: Human VH single domain antibody (Humabody) from a transgenic mouse, not a camelid VHH; also called Humabody VH; variant of Humabody 1

- binding result (mouse serum albumin): no binding
- Kd (Human Serum Albumin [1]): 30 nM
- koff (Human Serum Albumin [1]): 0.019 s⁻¹
- kon (Human Serum Albumin [1]): 620000 M⁻¹ s⁻¹
- Kd (Cyno Serum Albumin [2]): 11 nM
- koff (Cyno Serum Albumin [2]): 0.0065 s⁻¹
- kon (Cyno Serum Albumin [2]): 570000 M⁻¹ s⁻¹
- Kd (Human Serum Albumin [3]): 37 nM
- koff (Human Serum Albumin [3]): 0.031 s⁻¹
- kon (Human Serum Albumin [3]): 840000 M⁻¹ s⁻¹
- Kd (Cyno Serum Albumin [4]): 4.9 nM
- koff (Cyno Serum Albumin [4]): 0.0032 s⁻¹
- kon (Cyno Serum Albumin [4]): 640000 M⁻¹ s⁻¹
B2: SEQ ID NO. 5 (VH single domain antibody binding HSA) (VHH)
VHH: EVQLLESGGGLVKPGGSLRLSCAASGFTVSSYTMNWVRQAPGKGLEWVSSISSSGRYIYYADSVKGRFTISRDNAKNSLYLQMNSLRAEDTAVYYCARDPRMVGNPHEFDIWGQGTMVTVSS
notes: Human VH single domain antibody (Humabody) from a transgenic mouse, not a camelid VHH; also called Humabody 2; Humabody VH
